Results from patent US20220204587A1.
One block for each binder: values may come before it.

How the values were obtained:
Assay in all cases: cell-based or functional assay
[1] = target: TGF-β1 (UniProt P01137)
[2] = target: T1, TGF-β2 (UniProt P61812)
T1 sequence (looked up): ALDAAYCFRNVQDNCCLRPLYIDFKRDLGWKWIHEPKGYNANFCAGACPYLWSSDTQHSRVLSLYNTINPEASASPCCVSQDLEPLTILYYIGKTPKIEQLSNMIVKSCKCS

[3] = target: TGF-β3 (UniProt P10600)
Sequence of TGF-β3 (P10600 301-412 limits assumed): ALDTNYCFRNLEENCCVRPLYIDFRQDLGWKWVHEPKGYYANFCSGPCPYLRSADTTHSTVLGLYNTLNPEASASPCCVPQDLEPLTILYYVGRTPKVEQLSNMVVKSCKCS

Sequence of TGF-β1 (P01137 279-390 limits assumed): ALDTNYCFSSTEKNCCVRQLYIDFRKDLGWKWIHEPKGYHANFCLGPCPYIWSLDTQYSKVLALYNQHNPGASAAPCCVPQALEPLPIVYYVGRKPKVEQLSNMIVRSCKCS

- IC50 (nM), neutralization of TGF-β1-induced IL-11 release by A549 cells [1]: 0.00278 nM
B1: T22d35-Fc-IgG2-v2 (CC) (Fc fusion)
chain: IPPHVQKSVNNDMIVTDNNGAVKFPQLCKFCDVRFSTCDNQKSCMSNCSITSICEKPQEVCVAVWRKNDENITLETVCHDPKLPYHDFILEDAASPKCIMKEKKKPGETFFMCSCSSDECNDNIIFSEEYNTSNPDIPPHVQKSVNNDMIVTDNNGAVKFPQLCKFCDVRFSTCDNQKSCMSNCSITSICEKPQEVCVAVWRKNDENITLETVCHDPKLPYHDFILEDAASPKCIMKEKKKPGETFFMCSCSSDECNDNIIFSEEYNTSNPDVECPPCPAPPVAGPSVFLFPPKPKDTLMISRTPEVTCVVVDVSHEDPEVQFNWYVDGVEVHNAKTKPREEQFNSTFRVVSVLTVVHQDWLNGKEYKCKVSNKGLPAPIEKTISKTKGQPREPQVYTLPPSREEMTKNQVSLTCLVKGFYPSDISVEWESNGQPENNYKTTPPMLDSDGSFFLYSKLTVDKSRWQQGNVFSCSVMHEALHNHYTQKSLSLSPG

- IC50 (nM), neutralization of TGF-β-induced IL-11 release by A549 cells [2]: 10.6 nM
- IC50 (nM), neutralization of TGF-β-induced IL-11 release by A549 cells [3]: 0.00391 nM
- fold better neutralization potency than T2m-Fc (A549 IL-11 release assay) [3]: 24 fold
- fold better neutralization potency than T22d35 (A549 IL-11 release assay) [3]: 240 fold
- IC50 (nM), neutralization of TGF-β1-induced IL-11 release by A549 cells [1]: 0.00286 nM
- IC50 (nM), neutralization of TGF-β-induced IL-11 release by A549 cells [1]: 0.00335 nM
- fold better neutralization potency than T2m-Fc (A549 IL-11 release assay) [1]: 615 fold
- fold better neutralization potency than T22d35 (A549 IL-11 release assay) [1]: 970 fold
B2: T22d35-Fc fusion protein (TβRII-ECD doublet fused to the N-terminus of a human IgG2 Fc, hinge …) (Fc fusion)
chain: IPPHVQKSVNNDMIVTDNNGAVKFPQLCKFCDVRFSTCDNQKSCMSNCSITSICEKPQEVCVAVWRKNDENITLETVCHDPKLPYHDFILEDAASPKCIMKEKKKPGETFFMCSCSSDECNDNIIFSEEYNTSNPDIPPHVQKSVNNDMIVTDNNGAVKFPQLCKFCDVRFSTCDNQKSCMSNCSITSICEKPQEVCVAVWRKNDENITLETVCHDPKLPYHDFILEDAASPKCIMKEKKKPGETFFMCSCSSDECNDNIIFSEEYNTSNPDERKCCVECPPCPAPPVAGPSVFLFPPKPKDTLMISRTPEVTCVVVDVSHEDPEVQFNWYVDGVEVHNAKTKPREEQFNSTFRVVSVLTVVHQDWLNGKEYKCKVSNKGLPAPIEKTISKTKGQPREPQVYTLPPSREEMTKNQVSLTCLVKGFYPSDISVEWESNGQPENNYKTTPPMLDSDGSFFLYSKLTVDKSRWQQGNVFSCSVMHEALHNHYTQKSLSLSPG
